T1: plasminogen (Homo sapiens, UniProt P00747)
T1 chain: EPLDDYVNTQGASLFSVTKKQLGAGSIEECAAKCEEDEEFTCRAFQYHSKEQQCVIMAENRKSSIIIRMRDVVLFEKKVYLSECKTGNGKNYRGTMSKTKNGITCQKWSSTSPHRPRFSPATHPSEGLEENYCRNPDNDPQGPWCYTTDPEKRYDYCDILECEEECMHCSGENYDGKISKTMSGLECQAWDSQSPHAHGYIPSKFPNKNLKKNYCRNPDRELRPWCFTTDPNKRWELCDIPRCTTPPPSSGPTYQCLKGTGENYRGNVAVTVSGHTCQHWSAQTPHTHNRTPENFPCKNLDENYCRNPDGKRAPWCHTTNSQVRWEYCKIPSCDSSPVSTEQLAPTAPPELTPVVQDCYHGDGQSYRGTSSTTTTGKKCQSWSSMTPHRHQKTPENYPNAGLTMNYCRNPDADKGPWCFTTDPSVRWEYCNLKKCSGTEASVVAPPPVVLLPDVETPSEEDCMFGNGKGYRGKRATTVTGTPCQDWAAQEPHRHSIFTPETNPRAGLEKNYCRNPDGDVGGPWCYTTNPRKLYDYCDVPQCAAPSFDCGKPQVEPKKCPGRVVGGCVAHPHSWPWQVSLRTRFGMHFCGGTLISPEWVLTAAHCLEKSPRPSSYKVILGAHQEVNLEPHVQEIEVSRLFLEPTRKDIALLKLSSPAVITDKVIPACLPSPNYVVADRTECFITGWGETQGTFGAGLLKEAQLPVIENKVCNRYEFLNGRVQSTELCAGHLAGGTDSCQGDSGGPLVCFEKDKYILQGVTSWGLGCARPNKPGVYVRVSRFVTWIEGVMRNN

B1: α-globin chain (protein)
chain: not shown
B2: β-globin chain (protein)
chain: not shown
B3: tPA (protein)
chain: SYQVICRDEKTQMIYQQHQSWLRPVLRSNRVEYCWCNSGRAQCHSVPVKSCSEPRCFNGGTCQQALYFSDFVCQCPEGFAGKCCEIDTRATCYEDQGISYRGTWSTAESGAECTNWNSSALAQKPYSGRRPDAIRLGLGNHNYCRNPDRDSKPWCYVFKAGKYSSEFCSTPACSEGNSDCYFGNGSAYRGTHSLTESGASCLPWNSMILIGKVYTAQNPSAQALGLGKHNYCRNPDGDAKPWCHVLKNRRLTWEYCDVPSCSTCGLRQYSQPQFRIKGGLFADIASHPWQAAIFAKHRRSPGERFLCGGILISSCWILSAAHCFQERFPPHHLTVILGRTYRVVPGEEEQKFEVEKYIVHKEFDDDTYDNDIALLQLKSDSSRCAQESSVVRTVCLPPADLQLPDWTECELSGYGKHEALSPFYSERLKEAHVRLYPSSRCTSQHLLNRTVTDNMLCAGDTRSGGPQANLHDACQGDSGGPLVCLNDGRMTLVGIISWGLGCGQKDVPGVYTKVTNYLDWIRDNMRP
B4: hemoglobin A (protein)
chain 1: not shown
chain 2: not shown

This assay has as its target T1, plasminogen. Briefly: SPR.
In turn, B1 gave a dissociation constant (Kd) of 0.093 µM. In other words, the double-digit nanomolar range.
As to B2, the Kd amounted to 4 µM.
Take B3: the Kd was 0.048 µM.
The result for B4 reads 3.6 µM.

The record behind these values is article PMC8692352 (2023).
